Measured values from the supplement of paper PMC10724198.
± gives the standard deviation of the averaged measurements.

Test system: Saccharomyces cerevisiae
Experiment: protein stability index of tFT-peptide fusion (C-terminal peptide) (PSI (0-1 scale)); higher = more stable (slower turnover)
Conditions: temperature: 30 C
Experimental: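 MPS profiling in S. cerevisiae of the yeast C-terminome library: the last 12 aa of each annotated ORF are fused to the C-terminus of a sfGFP-mCherry timer, after a GGGS linker. Cells are FACS-sorted into 8 mCherry/sfGFP bins and deep-sequenced. PSI runs from 0 (unstable) to 1 (stable); wild type and das1Δ backgrounds, two technical replicates each.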

[1] = genetic background: das1 deletion

Sequence | protein stability index [1] | protein stability index (genetic background: wild type)
ESSARRDRKEHI [TMA23 C-terminal 12 aa] | 0.679 ± 0.035 | 0.701 ± 0.041
TSASSNLDDSFS [YPR002C-A C-terminal 12 aa] | 0.69 ± 0.019 | 0.6996 ± 0.002
APVAAGESESSL [SRO9 C-terminal 12 aa] | 0.6991 ± 0.0048 | 0.687 ± 0.007
TNDSFNIVALTP [PRP19 C-terminal 12 aa] | 0.68811 ± 0.00023 | 0.654 ± 0.017
KNNEVLLHKIKI [FAR8 C-terminal 12 aa] | 0.715 ± 0.015 | 0.669 ± 0.056
KRMALFVQEKLA [YFL031C-A C-terminal 12 aa] | 0.717 ± 0.0081 | 0.18 ± 0.0051
MFGVHDKSVIIE [NSE5 C-terminal 12 aa] | 0.692 ± 0.058 | 0.7 ± 0.032
FDSNVSVAVDER [SET5 C-terminal 12 aa] | 0.699 ± 0.022 | 0.651 ± 0.027
RILKDEIPIGED [BET3 C-terminal 12 aa] | 0.702 ± 0.017 | 0.659 ± 0.0079
GSSVPLDLTLFT [VRP1 C-terminal 12 aa] | 0.728 ± 0.012 | 0.714 ± 0.0093
AIARCALGETLL [CAR1 C-terminal 12 aa] | 0.685 ± 0.011 | 0.641 ± 0.011
KMLWQGITDYYI [YOL163W C-terminal 12 aa] | 0.7357 ± 0.0031 | 0.717 ± 0.021
EKFLGKKKTKTD [GPI16 C-terminal 12 aa] | 0.701 ± 0.06 | 0.689 ± 0.05
SLQVILEFVSQH [SXM1 C-terminal 12 aa] | 0.654 ± 0.029 | 0.6248 ± 0.0024
KVCVCMTINSYN [YDR154C C-terminal 12 aa] | 0.585 ± 0.027 | 0.583 ± 0.018
PNEFLRDQSTDI [APL5 C-terminal 12 aa] | 0.707 ± 0.031 | 0.66 ± 0.02
ILTAEKMRGNGN [RRP4 C-terminal 12 aa] | 0.686 ± 0.033 | 0.677 ± 0.027
QNADEESSSEEE [GCD6 C-terminal 12 aa] | 0.694 ± 0.011 | 0.6858 ± 0.0019
EIKKIYQNEKKI [DPC7 C-terminal 12 aa] | 0.726 ± 0.044 | 0.677 ± 0.029
KPSAKPVDLSKL [DAL7 C-terminal 12 aa] | 0.759 ± 0.011 | 0.846 ± 0.069
VNGGSKKRKAND [RMI1 C-terminal 12 aa] | 0.664 ± 0.016 | 0.663 ± 0.0079

Sequence | protein stability index [1] | protein stability index (genetic background: wild type)
LIDSYCLGGESR [YPL034W C-terminal 12 aa] | 0.688 ± 0.018 | 0.697 ± 0.039
SGIKEFFDNYKS [ARO9 C-terminal 12 aa] | 0.712 ± 0.027 | 0.716 ± 0.025
KEDPDLRQSYQG [MGS1 C-terminal 12 aa] | 0.693 ± 0.016 | 0.649 ± 0.0099
KPTASSSRKMFR [DUO1 C-terminal 12 aa] | 0.7169 ± 0.0025 | 0.722 ± 0.051
RLKTGKKKGGPK [RRP14 C-terminal 12 aa] | 0.6909 ± 0.0054 | 0.766 ± 0.13
ALPNWNTPYLRR [UCC1 C-terminal 12 aa] | 0.719 ± 0.015 | 0.746 ± 0.023
NKIANFVKNAKK [TRP1 C-terminal 12 aa] | 0.708 ± 0.02 | 0.701 ± 0.029
KAIEYFEEYQCW [FRE2 C-terminal 12 aa] | 0.722 ± 0.048 | 0.704 ± 0.052
DGKVIYELEDKE [GET3 C-terminal 12 aa] | 0.727 ± 0.021 | 0.6753 ± 0.0058
LSKDGIYTAVPN [PAU23 C-terminal 12 aa] | 0.6917 ± 0.0018 | 0.702 ± 0.0078
DDNDDSDEREIW [UBR1 C-terminal 12 aa] | 0.699 ± 0.031 | 0.71 ± 0.029
VKQLEVSSGIKQ [HEM1 C-terminal 12 aa] | 0.6929 ± 0.0017 | 0.675 ± 0.043
EDKGLLSCCTVM [YCP4 C-terminal 12 aa] | 0.786 ± 0.011 | 0.743 ± 0.032
KQVNEDADSDLL [KEL1 C-terminal 12 aa] | 0.6784 ± 0.0013 | 0.682 ± 0.013
IDLFRDAYNHEN [UPS2 C-terminal 12 aa] | 0.7353 ± 0.0064 | 0.70705 ± 3.4e-05
AANAEILSKINK [POX1 C-terminal 12 aa] | 0.713 ± 0.017 | 0.683 ± 0.0089
RRCDDMLYYIQN [POP4 C-terminal 12 aa] | 0.716 ± 0.021 | 0.662 ± 0.011
IFVFFVIWVLVN [SED5 C-terminal 12 aa] | 0.209 ± 0.019 | 0.211 ± 0.015
DLSSFFNYRSVQ [SPH1 C-terminal 12 aa] | 0.75 ± 0.015 | 0.7374 ± 0.0021
KLGEAEVQGLIM [YDR340W C-terminal 12 aa] | 0.721 ± 0.0023 | 0.688 ± 0.0056
